Experimental data reported in article PMC3120740, “WRKY Transcription Factors Involved in Activation of SA Biosynthesis Genes”.
Positions count from the first letter of the chain named.

B1: m2.3 (dsDNA)
DNA 1: ATTTCCCGGTATTTCAATTTGTGGAGATAT
DNA 2: ATATCTCCACAAATTGAAATACCGGGAAAT
B2: m2.2 (dsDNA)
DNA 1: ATTTCCCGGTATTTCAATTTCCCAAGATAT
DNA 2: ATATCTTGGGAAATTGAAATACCGGGAAAT
B3: m2 (dsDNA)
DNA 1: ATTTCTGACTATTTCAATTTCCGGAGATAT
DNA 2: ATATCTCCGGAAATTGAAATAGTCAGAAAT
B4: m1 (dsDNA)
DNA 1: B2 DNA 1 with C21G, C22T
DNA 2: B1 DNA 2 with C7T, C8G
B5: m2.7 (dsDNA)
DNA 1: ATTTCCCGGTATTTCACCTTGTCAAGATAT
DNA 2: ATATCTTGACAAGGTGAAATACCGGGAAAT
B6: m2.4 (dsDNA)
DNA 1: ATTTCCCGGTATTTCAATTTGTCACCATAT
DNA 2: ATATGGTGACAAATTGAAATACCGGGAAAT
B7: ICS1 -648 (dsDNA)
DNA 1: TTGCAATTTGTAGTGACATGTAATGTTTTT
DNA 2: AAAAACATTACATGTCACTACAAATTGCAA
B8: ICS1 -278 (dsDNA)
DNA 1: CTAATAATAATAGATCAAACAATTAACTGA
DNA 2: TCAGTTAATTGTTTGATCTATTATTATTAG
B9: m2.1 (dsDNA)
DNA 1: ATTTCCCGGTATTTCAATGGGTCAAGATAT
DNA 2: ATATCTTGACCCATTGAAATACCGGGAAAT
B10: ICS1 -844 WK-like box (dsDNA)
DNA 1: AATAGTATTGATTTTCCAAATTTAATTATA
DNA 2: TATAATTAAATTTGGAAAATCAATACTATT
B11: ICS1 -725 (dsDNA)
DNA 1: ATTTTAGAAATGTGTCAAAATTTAAAGGAG
DNA 2: CTCCTTTAAATTTTGACACATTTCTAAAAT
B12: m1+2 (dsDNA)
DNA 1: B2 DNA 1 with C23G, A24G
DNA 2: B1 DNA 2 with A9G, C10G
B13: m2.8 (dsDNA)
DNA 1: ATTTCCCGGTATTTCAATTTGTCAAGGGAT
DNA 2: ATCCCTTGACAAATTGAAATACCGGGAAAT
B14: m2.5 (dsDNA)
DNA 1: B6 DNA 1 with C25G, C26A
DNA 2: B6 DNA 2 with G5T, G6C

What follows are binders tested against T1, GST-WRKY28 (Arabidopsis thaliana, UniProt Q8VWJ2 1-318) (assay: EMSA; 0.5 ug protein, ~0.01 pmol probe; 3 uL 5x buffer (20% glycerol, 5 mM MgCl2, 2.5 mM EDTA, 2.5 mM DTT, 250 mM NaCl, 50 mM Tris-HCl pH 7.5, 0.25 mg/mL poly(dI-dC)) in 14 uL + 1 uL probe (final about 50 mM NaCl, 10 mM Tris, 1 mM MgCl2); room temperature, 20 min). Details: protein: recombinant; tags: N-terminal GST (pGEX-KG); label: 32P-dCTP end-fill (Klenow); 5'-GGG overhangs filled in with Klenow.
T1 sequence (Q8VWJ2 whole entry): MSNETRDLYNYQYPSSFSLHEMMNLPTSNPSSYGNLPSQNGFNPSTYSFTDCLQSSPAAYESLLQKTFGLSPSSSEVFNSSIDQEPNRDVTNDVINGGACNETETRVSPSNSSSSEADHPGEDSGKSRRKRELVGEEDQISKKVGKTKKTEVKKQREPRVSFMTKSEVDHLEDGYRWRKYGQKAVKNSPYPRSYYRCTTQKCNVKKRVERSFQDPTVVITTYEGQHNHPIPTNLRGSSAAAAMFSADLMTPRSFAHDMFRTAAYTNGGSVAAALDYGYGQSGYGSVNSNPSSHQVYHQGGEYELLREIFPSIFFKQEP

| Binder | binding result |
| --- | --- |
| B1 | no binding |
| B2 | no binding |
| B3 | binds |
| B4 | binds |
| B5 | no binding |
| B6 | binds |
| B7 | no binding |
| B8 | no binding |
| B9 | binds |
| B10 | no binding |
| B11 | no binding |
| B12 | no binding |

The binders below were run against T1, GST-WRKY28 (assay: EMSA; unaltered binding; 0.5 ug protein, ~0.01 pmol probe; 3 uL 5x buffer (20% glycerol, 5 mM MgCl2, 2.5 mM EDTA, 2.5 mM DTT, 250 mM NaCl, 50 mM Tris-HCl pH 7.5, 0.25 mg/mL poly(dI-dC)) in 14 uL + 1 uL probe (final about 50 mM NaCl, 10 mM Tris, 1 mM MgCl2); room temperature, 20 min). Details: protein: recombinant; tags: N-terminal GST (pGEX-KG); label: 32P-dCTP end-fill (Klenow); 5'-GGG overhangs filled in with Klenow.

| Binder | binding result |
| --- | --- |
| B13 | binds |

These binders were tested against T1, GST-WRKY28 (assay: EMSA; as strong as wild type; 0.5 ug protein, ~0.01 pmol probe; 3 uL 5x buffer (20% glycerol, 5 mM MgCl2, 2.5 mM EDTA, 2.5 mM DTT, 250 mM NaCl, 50 mM Tris-HCl pH 7.5, 0.25 mg/mL poly(dI-dC)) in 14 uL + 1 uL probe (final about 50 mM NaCl, 10 mM Tris, 1 mM MgCl2); room temperature, 20 min). Details: protein: recombinant; tags: N-terminal GST (pGEX-KG); label: 32P-dCTP end-fill (Klenow); 5'-GGG overhangs filled in with Klenow.

| Binder | binding result |
| --- | --- |
| B14 | binds |
